One molecule from publication PMC5664961 (2017) can be followed below.

Broadly, the Kd is the free concentration of one partner at which half of the binding sites on the other are occupied at equilibrium, for simple one-to-one binding. Lower therefore signals tighter binding.

The experiment concerns the target human Cul3 N-terminal domain (NTD, residues M1-L388) with the engineered mutations I342R and L346D (human, UniProt Q13618 1-388, I342R | L346D). Put plainly: ITC.

Chain of human Cul3 N-terminal domain (NTD, residues M1-L388) with the engineered mutations I342R and L346D (Q13618 1-388 I342R/L346D): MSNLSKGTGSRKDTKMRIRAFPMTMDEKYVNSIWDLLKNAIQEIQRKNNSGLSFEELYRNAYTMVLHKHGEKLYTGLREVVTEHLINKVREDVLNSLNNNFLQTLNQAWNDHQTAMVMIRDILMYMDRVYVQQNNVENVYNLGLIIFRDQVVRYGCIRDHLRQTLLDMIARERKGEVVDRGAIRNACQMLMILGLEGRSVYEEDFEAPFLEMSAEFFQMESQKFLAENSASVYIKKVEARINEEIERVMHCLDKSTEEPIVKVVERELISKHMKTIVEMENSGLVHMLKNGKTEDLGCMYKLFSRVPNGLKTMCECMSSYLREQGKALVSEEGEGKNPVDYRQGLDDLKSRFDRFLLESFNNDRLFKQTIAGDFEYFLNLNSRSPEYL

B1: KCTD17 BTB + CTD multi-domain construct (residues G20-Q220), tag cleaved (domain or fragment)
chain: SMGAGGRAAGGWGKWVRLNVGGTVFLTTRQTLCREQKSFLSRLCQGEELQSDRDETGAYLIDRDPTYFGPILNFLRHGKLVLDKDMAEEGVLEEAEFYNIGPLIRIIKDRMEEKDYTVTQVPPKHVYRVLQCQEEELTQMVSTMSDGWRFEQLVNIGSSYNYGSEDQAEFLCVVSKELHSTPNGLSSESSRKTKSTEEQLEEQ
As for B1, the Kd amounted to 12 nM.
